Reference: the nanobody polyreactivity screen of Harvey et al. (2022)

Assay: yeast display, Sf9 membrane polyspecificity reagent, FACS + sequencing; frameworks hold sequencing errors
Procedure, shortened: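 A nanobody's polyreactivity label depends on the gate it was sorted from. Yeast display cells were stained with 10% biotinylated, detergent-solubilized Sf9 membrane reagent for 1 hour at 4 °C, enriched on streptavidin microbeads and sorted by FACS. The low and high (top ~1%) gates were set on anti-HA fluorescence for expression and streptavidin fluorescence for reagent binding.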

Sequence	polyreactivity (PSR sort gate)
QVQLVESGGGLVQAGGSLRLSCAASGSTFYRYAMGWYRQAPGNERELVAVLRYTSGRTYYADSVKGRFTISRDNAKYTVYLQMNSLKREDTAVYYCATDPYGTRGTDSRYNYWGQGIQVTVSS	high polyreactivity
QVQLVESGGGLVQAGGSLRLSCAASGRTFGLYAMGWYRQAPGKERELVAAMSYSGGSTYYADSVQGRFTISRDNAKNTVYLQMNSLKPEDTAVYYCAAVYYYASRTSKQPYYDWGQGTQVTVSS	high polyreactivity
QVQLEESGGGLVQAGGSLRLSCAASGRIRYYAMGWYRQAPGKERELVAAISSTGGSTYYADSVKGRFTISRDNAKNTVYFQMNSLKPEDTAVYYCNVAWIWGKYEYWGQGTQVTVSS	high polyreactivity
QVQLVESGGGLVQAGGSLRLSCAASGSTFQGNAMGWYRHAPGKERELVAAISRSGGSTYADSVKGRFTISRDNAKNTVYLQINSLKPEDTAVYYCAAYSGVGYLWFDYWGQGTQVTVSS	low polyreactivity
QDQLVESGGGLVQAGGSLRLSCAASGLTFTYYAMGWYRQAPGKERELVAAMTWNGGRTYYADSVKGRFTISRDNAKNTVYLLMNSLKPEDTAVYYCNARYILSSSGFGYWRQGTQVTVSS	high polyreactivity
QVQLVESGGGLVQAGGSLRLSCAAAGSTFRYYAMGWYRHAPGKDRELVAAITSGGNTYNADSVKGRFTISRDNAKNTVYLLMNSLKPEDTAVYYCAAVGYLKYDNWGQGTQVTVSS	low polyreactivity
QVQLVESGGGLVQAGGSLRLSCAASGGTYVGYSMGWYRQAPGKERELDATITRRGGNTYYADSVKGRFTISRDNAKNTVYLQMNSLKPEDTAVYYCAARKKGSRVGYDYWGQGTQVTVSS	high polyreactivity
QVQLVESGGVLLQGGGSLRLTWAASGGIFTDYTIRSYRQAPGKERELVADITWTGGSTYYPDSVKGRFTISRDNAKNTVYLQMNSLKPEDTAVYYCAADDYWVNLDYWGQGTQVTVSS	low polyreactivity
QVQLVESGGGLVQAGGSLRLSCAASGFTLNGYAMGWYRQAPGKERELVAAISSSGGRTYYADSVKGRFTISRDNAKNTVYLQMNSLKPEDTAVYYCAAVVYYEDGYWGQGTQVTVSS	low polyreactivity
QVQLVESGGGLVQAGGSLRLSCAASGRTFEYYAMGWYRQAPGKERELVAGISWSGGSTYYADSVKGRFTISRDNAKNTVYLQMNSLKPEDTAVYYCNARYLPRSTIYDYWGQGTQVTVSS	high polyreactivity
QVQLVESGGGLVQAGGSLRLSCAASGFIFYINAMGWYRQAPGKERELVAAINWRTGSTYYADSVKGRFTISRDNAKNTVYLLMNSLKPEDTAVYYCAAYGYWRRADTEFDYWGQGTQVTVSS	low polyreactivity
QVQLVESGGGLVQAGGSLRLSCAASGRTFVQNAMGWYRQAPGKERELVASIRYRDGSTYYADSVKGRFTISRDNAKNTVYLQMNSLKREDTAVYYCAVRIGARGRGGKDRVYYWGQGTQVTVSS	high polyreactivity
QLQLVESGGGIVQAGGSLRLSCAASGSTFLRNAMGRYRQAPGKKGSGVATISYDGYSTYYADSVKGRLTISRDNAKNSFYLQMNSLKPEDTAVYYCAASYSLTFWDKDDYWGQGSQVTVSS	low polyreactivity
QVQLVESGGGLVQAGGSLRLSCAASGFTIFGYAMGWYRQAPGKERELVAAISTIDGDTYYADSVKGRFTISRDNAKNTVYLQMNSLKPEDTAVYYSAADDYIDGDDYWGQGTQVTVSS	low polyreactivity
QVQRVESGGGLVQAGGSLRLSCAASGSIFTGNAMGWYRQAPGKEREFVAAIRRSGA	low polyreactivity
QVQLEESVGGLVQAGRSLRLSCASSGTTFYYYALGWYRQAPGKERELVATIDSGTSTYYADSVKGRFTISRDNAKNTVYLQMNSLKPEDTAVYYCAAKTWSWSYGYNYWGQGTQVTVSS	low polyreactivity
QVQLVESGGGLVQAGGSLRLSCAASGSTFGGYTMGWYRQAPGKERELVADITSSGSTNYADSLKGRFTISRDNAKNTVYLQMNSLKPEDTAVYYCAVRTYPGRFWYWGVDMDYWGQGTQVTVSS	low polyreactivity
QVQLVESGGGLDQAGGSLRLSCAASGRIYYNYAMGWYRQSPVKERELVAAISGSGGSTYYADSVKWRLTISRDNAKNTVYLLMNSLKPEDTAVYYCSTSGPQYYSRNFDYWGQGTQVTVSS	low polyreactivity
QVQLVESGGGLVQAGGSLRLSCAASGSIFTTNAMGWYRQAPGKERELVARIDRAGSTYYADSVKGRFTISRDNAKNTVYLQMNSLKPVDTAVYYCAVEAVLSRPYATKFDYWGQGTQVNVSS	low polyreactivity
QVQLVESGGGLVQAGGSLRLSCAASGSNVYIYAMGWYRQAPGKERELVASINSGGSTNYADSVKGRFTISRDNAKNTVYLQMNSLKPEDTAVYYCNADVYDTYSPLGYYYWGQGTQVTVSS	low polyreactivity
QVQLQESVGGLVQASGSIFHVPNMGWYRQAPGNERELVAGLAGGGNTNYADIVKGRFTISRDNAKNTVYLQRNSLDTAVYYCAVVGFGRGTHIYWGQGTQVTVSS	high polyreactivity
QVQLVESGGGLVQAGGSLSLSCAASGRIYNYAMGWYRQAPGKERELVAAITGRGGSTYYADSVKGRFTISRDNAKNTVYLQMNSLKPEDTAVYYCARAGGPRHDWGQGTQVTVSS	high polyreactivity

Sequence	polyreactivity (PSR sort gate)
QVQLVESGGGLVQAGGSLRLSCAASGSTFSYYAMGWYIQAAGKERELVADITLNGGDTYYADSVKGRFTISRDNAKNTVYLQMNSLKPEDTAVYYCAKDSTADELTGFDYWGQGTQVTVSS	low polyreactivity
QVQLVESGGGLVQAGGSLRLSCAASGLIFRHYAMGWYRQAPGKERELVAAIDYSGGSTYYADSVKGRFTISRDNAKNTVYLQMNSLKPEDTAVYYCAADYFWLYYSEYGYWGQGTQVTVSS	low polyreactivity
QVQLVESGGGLVQAGGSLRLSCAASGSIFRTNAMGWYRQAPGKERELVAAISSGDRTYYADSVKGRFTISRDNAKNTVYLQMNSLKPEDTAVYYCAARGYSATVYAGTYDYWGQGTQVTVSS	low polyreactivity
QVQLVESGGGLVQAGGSLRLSCAASGRTLVDYGMGWYRQPPGKERELVAVITSGGSTYYADSVKGRFTISRDNAKNTVYLVMNSLKPEDTAVYYCNARHPYYTVQTGGYDYWGQGTQVTVSS	low polyreactivity
QVQLVESGGGLVQAGGSLRLSCAASGFTIRSYVMGWYRQAPGKEREFVAAISYRGGGTNYADSVKGRFTISRDNAKNTVYLQMNSLKPEDSAVYYCNAYIVSNEGDYWGQGTQVTVSS	high polyreactivity
QVQLVESRGGLVQAGGSLRLSCAASGFTFFVYPMGWYRQAAGKERELVAVITSGGTTNYADSVKGRFTISRDNAKNTVYLQMNSLIPEDTAVYYCATDNGGIPKYVPYDYWGQGTQGTVSS	high polyreactivity
QVQLVESGGGLFQAGGSLRLSCAAYGRTFYVYALGWYRQAPGKEREFVAAITSSGGSTYYADSVKGRFTISRDNAKNTVYLQMNSLKPEDTAVYYCAADDWDWENDYWGQGTQVTVSS	low polyreactivity
QVQLVESGGGLVQAGGSLRLSCAASGRTFIFYAMGWYRQAPGKERELVAAISSSGSGTYYADSVKGRFTISRDNAKNTVYFQMNSLKPEDTAVYYCAADVVNSRRRPKYGYWGQGTQVTVSS	low polyreactivity
QVQLVESGGGLVQAGGSLRLSCAASGSIFFPYAMGWYRKAPGKERGLVAAISWRGGITYYADSVKGRFTISRDNAKNTVYLQMNSLKPADTAVYYCAADGPYTGDGALDYWGQGTQVTVSS	high polyreactivity
QVQLVESGGGLVQAGGSLRLSCAASGSILHVYAMGWYRQAPGKERELVAAISKSGTRTYYAVSVKGRFTISRDNAKNTVYLQMNRLKPEDTAVYYCAAERSQYVYSTDPYGYDYWGQGTQVTVSS	high polyreactivity
QVQLVESGGGLLKAGGSLRLSCAASGFTVDGYGMGWYRQAPGKERELVAVITSGGSTKYADSVKGRYTISRDNAKITVYLQMKSLKPEDTAVYYCNVVGGRYLYSAYDYWGQGTQVTVSS	low polyreactivity
QVQLVESGGGFVQAGGSLRLSCAASGFTFYKYAMGWYRQAPGQERELVAAITRGGGSTYYADSVKGRFTISRDHAQNPVYLQKNRLIPEDPAVYYCNVLYGYGTDVSRVDYWGQGTQVTVSS	high polyreactivity
QVQLVESGGGLVQAGGSLRLSCAASGRTFLINAMGWYRQAPGKERELVAAINYGGGSTYYADSVKGRFTISRDNAKNTVYLQMKSLKPEDTAVYYCSTEYYDTYVGSYSYWGAKYGSWGQGTQVTVSS	low polyreactivity
QDQLVESGGGLVQAGGSLRLSCAASGRNFSFNPMGLYRQAPGKERELVATIRTDGTTNYADSVKGRFTISRDNAKNTVYVQMNSLKPEDTAVYYCAADSAYHRRRMYYWGQGTQVTVSS	high polyreactivity
QVQLVESGGGLVQAGGSLRLSCAASASNIIGYAMGWYRQAPGKERELVAAITSGSITNYADSVKGRFTISRDTAKNTVYLQMNSLKPEDTAVYYCNADVNFIDDDYWGQGTQVTVSS	low polyreactivity
QVQLVESGGGLVQAGGSLRLSCAASGRIFYSYAMGWYRQAPGKERELVAAIDESDGSTYYADSVKGRFTISRDNAKNTVYLQMNSLKPEDTAVYYCAAGYLDVLWLLDLLQLYGYWGQGTQVTVSS	low polyreactivity
QVQLVESGGGLVQAGGSLRLSCAASGSTFYRNAMGWYRPAPGKERELVAAINSTDSTNYADSVKGRFTISRDNAKNTVYLQMNSLKPEDTAVYYCAAVGDNLATAEYDYWGQGTQVTVSS	low polyreactivity
QVQLVESGGGLVQAGGSLRLSCAASGSTFLLNAMGWSRQAPGKDRELVAAITWTGGSTYYADSVKGRFTISRDNAKNTVYLQMNILKPEDTAVYYCAAETYVTSYDYWGQGTQVTVSS	low polyreactivity
QLQLVESGGGLVQAGGSLRLSCAASGSIFTWYAMGWYRQAPGKERELVAAITRGGSTYADSVKGRFTISRDNAKNTVNLQMNSLKPEDTAVYYCNAVYGVYDFNYWGQGTQVTGSS	low polyreactivity
QVQLVETGGGLVQAGGSLRLSCAASGSIFVYYAMRWYRQAPGKERELVAAITIGASTDYADSVKGRFTISRDNAKNTVYLQMISVKPEDTAVYNCAADLYYGDYRTLPKADEYDYWGQGTQVTVSS	low polyreactivity
QVQLVESGGGLVQAGGSLRLSCAASGRIFYYYAMGWYRQAPGKERELVAAISASGASTYYADSVKGRFTISRDNAKNTVYLQMNSLKPEDTAVYYCAAEEFYYYSADWYDYWGQGTQVTVSS	high polyreactivity
